Experimental data as given in patent publication US20060269542A1, “Immunoliposome composition for targeting to a HER2 cell receptor” (priority 2005, published 2006).
In brackets after ≈: the same amount, converted by molar mass. Values belong to the molecule of their own block, whether it stands above or below them.

Key:
[1] = system: SK-BR-3 human breast carcinoma cells; test: cells; format: cell-based; conditions: 10-min exposure, then 72 hours growth, read-out: IC50 (doxorubicin concentration resulting in 50% cell growth inhibition)
Description: SK-BR-3 human breast carcinoma cell line was purchased from American Tissue Type Culture Collection (ATCC, Manassas, Va.). Cells were maintained in in vitro culture in McCoy's 5A modified medium supplemented with 10% fatal bovine serum and were maintained in a humidified incubator at 37° C.
Cells were exposed for 10 minutes to doxorubicin (1.8 mg/mL) in free form, doxorubicin entrapped in PEGylated liposomes (2.06 mg/mL), or an immunoliposome formulation having 2 antibodies per liposome (1.86 mg/mL), 5 antibodies per liposome (2.12 mg/mL), 7.5 antibodies per liposome (1.99 mg/mL), or 15 antibodies per liposome (2 mg/mL).
Log-phase SK-BR-3 breast cancer cells were harvested using Versene (1:5000), resuspended in growth media at concentration of 5×10^4 cells/mL. […] At the end of incubation, the amount of viable cells was determined using the Promega CellTiter 96® Aqueous One Solution Cell Proliferation Assay (a tetrazolium based colorimetric method for determining the number of viable cells in proliferation, Madison, Wis.). […] The plates were then incubated for 3-4 hours after which absorbance was recorded at 490 nm with a microplate reader. Cell viability was calculated as % of untreated control using the formula: % Viability=(A−A0)/(A100−A0)×100% where A is the measured absorbance, A0 is the absorbance of the blanks, and A100 is the absorbance of the wells with untreated cells. […]

HER2 receptor [2] = molecular target: T1, HER2 receptor (human, UniProt P04626 23-1255); test: cell-based or functional assay
HER2 receptor [3] = molecular target: T1, HER2 receptor; test: 4 h incubation of immunoliposomes with SK-BR-3 cells (IHC 3+), wash, lysis, doxorubicin fluorescence
Description: SK-BR-3 or MCF-7 cells at 1.5×10⁵ cells/0.5 mL of growth medium per well were added to a 24-well plate. After overnight incubation for attachment and acclimation, cells were treated with immunoliposomes ([…], 15:1, 30:1, and 45:1 anti-HER2 antibodies:liposome), or liposomes at 0.015 mg/mL in 0.5 mL growth media/well in duplicates. The 24-well plates were then placed on a rotating platform inside the incubator with rotation at 40-60 rpm at 37° C., 5% CO₂, and 100% humidity for 4 hours. After incubation, cell medium were aspirated and cells were washed four times with Hank's Balanced Salt Solution (HBSS). After this, cells were lysed by adding 0.1 mL of 1% Triton X-100 to each well. The plates were swirled to mix and placed on a rotating platform for 15 minutes at room temperature. During this step, cells detached from the bottom of the plate and the cell nuclei formed visible clumps. Acid isopropanol (1.0 mL) were added to the wells containing the Triton X-100 solution and mixed by swirling or pipetting up and down until the visible clumps disappeared.
Doxorubicin content in the cell lysates was measured by a spectrofluorometer using an excitation wavelength of 470 nm and an emission wavelength of 590 nm. The spectrofluorometer settings were as follows: slit width 2 nm, integration time 1 second, photomultiplier voltage 950 V, and single wavelength acquisition mode. Fluorescence of the background cell lysate was subtracted and the amount of doxorubicin in the cell lysates was determined from the concurrently measured standards (10, 25, 50, 100, 250, 500, 1000, and 2500 ng of doxorubicin per sample) fit to a standard curve using quadratic polynomial regression. Cell uptake of doxorubicin was determined by interpolation from the standard curve.

[4] = molecular target: extracellular domain of HER2 receptor (Homo sapiens, UniProt P04626); conditions: read-out: HER2 binding affinity (Kd); cited from earlier work

Molecule: COc1cccc2c1C(=O)c1c(O)c3c(c(O)c1C2=O)C[C@@](O)(C(=O)CO)C[C@@H]3O[C@H]1C[C@H](N)[C@H](O)[C@H](C)O1 [free doxorubicin, doxorubicin]
IC50 [1]: ~9.5 µg/mL (≈ 17.5 µM)

B1: anti-Her2 immunoliposome formulation with scFv/liposome ratio of 5 (scFv)
scFv: QVQLVESGGGLVQPGGSLRLSCAASGFTFRSYAMSWVRQAPGKGLEWVSAISGRGDNTYYADSVKGRFTISRDNSKNTLYLQMNSLRAEDTAVYYCAKMTSNAFAFDYWGQGTLVTVSSGGGGSGGGGSGGGGSQSVLTQPPSVSGAPGQRVTISCTGSSSNIGAGYGVHWYQQLPGTAPKLLIYGNTNRPSGVPDRFSGFKSGTSASLAITGLQAEDEADYYCQSYDSSLSGWVFGGGTKLTVLG
modifications: terminal cysteine coupled through a thioether linkage to maleimide-PEG-DSPE
IC50 (cytotoxicity, SK-BR-3 cells, 10-min exposure, doxorubicin concentration) (HER2 receptor [2]): ~30 µg/mL

B2: Anti-HER2 Immunoliposomes (45:1) (scFv)
scFv: B1 scFv
modifications: terminal cysteine coupled through a thioether linkage to maleimide-PEG-DSPE
notes: On average 45 scFv per liposome; also called 45:1 immunoliposome formulation; F5 scFv immunoliposome
Doxorubicin (pg/cell), cellular binding/uptake (HER2 receptor [3]): 4.39 pg/cell

B5: F5: single chain antibody fragment (scFv), 251 amino acids, binds extracellular domain of HER2 receptor, SEQ ID NO: 2 (protein, listed as Homo sapiens)
scFv: B1 scFv
Kd [4]: 150 to 300 nM

B6: Anti-HER2 Immunoliposomes (7.5:1) (scFv)
scFv: B1 scFv
modifications: terminal cysteine coupled through a thioether linkage to maleimide-PEG-DSPE
notes: On average 7.5 scFv per liposome; also called 7.5:1 immunoliposome formulation; immunoliposomes containing 7.5 antibodies per liposome
Doxorubicin (pg/cell), cellular binding/uptake (HER2 receptor [3]): 6.02 pg/cell
IC50 (cytotoxicity, SK-BR-3 cells, 10-min exposure, doxorubicin concentration) (HER2 receptor [2]): ~16 µg/mL

Now from value to molecule, other results behind:

Doxorubicin (pg/cell), cellular binding/uptake (HER2 receptor [3]): 8.35 pg/cell
B3: Anti-HER2 Immunoliposomes (15:1) (scFv)
scFv: B1 scFv
modifications: terminal cysteine coupled through a thioether linkage to maleimide-PEG-DSPE
notes: On average 15 scFv per liposome; also called 15:1 immunoliposome formulation; immunoliposomes with 15 antibodies per liposome
IC50 (cytotoxicity, SK-BR-3 cells, 10-min exposure, doxorubicin concentration) (HER2 receptor [2]): ~3.9 µg/mL

Doxorubicin (pg/cell), cellular binding/uptake (HER2 receptor [3]): 6.66 pg/cell
B4: Anti-HER2 Immunoliposomes (30:1) (scFv)
scFv: B1 scFv
modifications: terminal cysteine coupled through a thioether linkage to maleimide-PEG-DSPE
notes: On average 30 scFv per liposome; also called 30:1 immunoliposome formulation; F5 scFv immunoliposome
